In patent US20210063414A1, “METHODS FOR PREVENTING AND/OR TREATING BONE LOSS CONDITIONS BY MODULATING IRISIN” (Dana-Farber Cancer Institute, Inc., priority 2018, published 2021):

Biological target: T1, MLO-Y4 cell surface proteins (Mus musculus, UniProt P39654)
T1 construct: endogenous in cells; host or cells: MLO-Y4
T1 sequence (P39654 1-663): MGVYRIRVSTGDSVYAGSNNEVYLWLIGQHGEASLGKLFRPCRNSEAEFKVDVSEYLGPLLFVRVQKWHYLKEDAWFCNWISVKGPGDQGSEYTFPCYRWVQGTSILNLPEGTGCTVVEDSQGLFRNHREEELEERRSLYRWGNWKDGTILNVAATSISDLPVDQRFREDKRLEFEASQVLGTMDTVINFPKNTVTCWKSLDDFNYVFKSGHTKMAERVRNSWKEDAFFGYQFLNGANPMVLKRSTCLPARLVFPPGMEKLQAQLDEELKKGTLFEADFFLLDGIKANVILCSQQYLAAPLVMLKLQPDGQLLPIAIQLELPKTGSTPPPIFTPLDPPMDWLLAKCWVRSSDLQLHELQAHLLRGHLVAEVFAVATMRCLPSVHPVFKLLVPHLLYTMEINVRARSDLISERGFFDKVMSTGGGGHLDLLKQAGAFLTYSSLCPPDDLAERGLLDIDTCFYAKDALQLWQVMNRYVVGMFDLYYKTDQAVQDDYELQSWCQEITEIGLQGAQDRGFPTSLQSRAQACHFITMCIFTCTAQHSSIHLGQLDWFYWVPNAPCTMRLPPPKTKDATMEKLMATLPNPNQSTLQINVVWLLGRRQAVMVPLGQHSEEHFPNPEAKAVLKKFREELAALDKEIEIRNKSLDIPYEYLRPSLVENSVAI
Test: Crosslinking/co-immunoprecipitation/mass spectrometry (TMT quantitative proteomics) to identify irisin receptors
Format: binding
Conditions: co-precipitated protein Alox15 (LOX15_MOUSE)
Method in brief: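 Mouse MLO-Y4 cells were switched to serum-free FreeStyle medium for 4 h, chilled, then exposed to 10 nM His-tagged irisin (or adipsin as control) for 20 min. Cells were crosslinked with 1.5 mM DTSSP (30 min, ice), and bound proteins were pulled down on Ni-NTA and eluted with 250 mM imidazole. Eluates were separated by SDS-PAGE, trypsin-digested in gel, TMT 6-plex labelled and quantified by MS3-based LC-MS/MS on an Orbitrap Fusion Lumos.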

TMT signal-to-noise ratio: 141.336
Substance: adipsin
